According to patent US20190071480A1 (Biogen, published 2019):
Where a chain is given by its changes, count along the chain named.

Key:
[1] = target: T1, extracellular domain of activin receptor type IIB (ActRIIBecd), biotinylated (Homo sapiens (Human), UniProt Q13705 27-117, amino-biotinylated with amine-PEG3-Biotin); assay: BIAcore SPR, biotinylated ActRIIBecd on chip; SD ±12.89 nM
T1 construct: immobilised on a streptavidin-coated sensor chip; also called biotinylated ActRIIBecd; extracellular domain of ActRIIB
T1 sequence: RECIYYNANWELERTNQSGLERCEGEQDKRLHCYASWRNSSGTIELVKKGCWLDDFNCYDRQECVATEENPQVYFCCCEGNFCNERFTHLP
Description: (§1) Biosensor experiments. In one embodiment, experiments were performed on a BIAcore™ T100/T200 instrument (Pharmacia Biosensor AB) in the multichannel mode (serial flow path involving flow cells 1+2+3+4). Flow rate was 10 μl/min; temperature was 25° C.; and data were recorded at 2.5 points/s. All four segments of a sensor chip CMS were coated with streptavidin (Sigma) to a density of 2000 pg/mm² (2000 resonance units) by the aminocoupling procedure. ActRIIBecd (10 mg) and amine-PEG3-Biotin (10 mg, Pierce, Rockford, Ill.) were dissolved in 200 μl H₂O and 10 mg NaCNBH₃ was added to prepare biotinylated ActRIIBecd. The reaction mixture was heated at 70° C. for 24 h, after that a further 10 mg NaCNBH₃ was added and the reaction was heated at 70° C. for another 24 h. After cooling to room temperature, the mixture was desalted with the spin column (3,000 molecular weight cut off (MWCO)). […] Sensograms were recorded during flow of the analyte (the ActRIIBecd-associated polypeptides (i.e., domains) as previously described) first through flow cell 1 (control) then through flow cell 2 (biotinylated ActRIIBecd). […] The sensograms obtained at 1.11, 3.33, 10, 30, and 90 nM analyte were evaluated for equilibrium binding, association rate, and dissociation rate by using the programs supplied with the instrument (BIA evaluation 2.1; Software Handbook. 1995; Pharmacia Biosensor AB).

[2] = target: T1, extracellular domain of activin …; assay: BIAcore SPR, biotinylated ActRIIBecd on chip; SD ±14.15 nM
Description: as §1

[3] = target: T1, extracellular domain of activin …; assay: BIAcore SPR, biotinylated ActRIIBecd on chip; SD ±16.14 nM
Description: as §1

[4] = target: T1, extracellular domain of activin …; assay: BIAcore SPR, biotinylated ActRIIBecd on chip; SD ±18.67 nM
Description: as §1

[5] = target: T1, extracellular domain of activin …; assay: BIAcore SPR, biotinylated ActRIIBecd on chip; SD ±16.11 nM
Description: as §1

[6] = target: T1, extracellular domain of activin …; assay: BIAcore SPR, biotinylated ActRIIBecd on chip; SD ±19.71 nM
Description: as §1

[7] = target: T1, extracellular domain of activin …; assay: BIAcore SPR, biotinylated ActRIIBecd on chip; SD ±18.15 nM
Description: as §1

[8] = target: T1, extracellular domain of activin …; assay: BIAcore SPR, biotinylated ActRIIBecd on chip; SD ±14.42 nM
Description: as §1

[9] = target: T1, extracellular domain of activin …; assay: BIAcore SPR, biotinylated ActRIIBecd on chip; SD ±13.44 nM
Description: as §1

[10] = target: T1, extracellular domain of activin …; assay: BIAcore SPR, biotinylated ActRIIBecd on chip; SD ±18.52 nM
Description: as §1

[11] = target: T1, extracellular domain of activin …; assay: BIAcore SPR, biotinylated ActRIIBecd on chip; SD ±17.42 nM
Description: as §1

[12] = target: T1, extracellular domain of activin …; assay: BIAcore SPR, biotinylated ActRIIBecd on chip; SD ±13.59 nM
Description: as §1

[13] = target: T1, extracellular domain of activin …; assay: BIAcore SPR, biotinylated ActRIIBecd on chip; SD ±19.56 nM
Description: as §1

[14] = target: T1, extracellular domain of activin …; assay: BIAcore SPR, biotinylated ActRIIBecd on chip; SD ±15.74 nM
Description: as §1

[15] = target: T1, extracellular domain of activin …; assay: BIAcore SPR, biotinylated ActRIIBecd on chip; SD ±17.84 nM
Description: as §1

[16] = target: T1, extracellular domain of activin …; assay: BIAcore SPR, biotinylated ActRIIBecd on chip; SD ±13.69 nM
Description: as §1

[17] = target: T1, extracellular domain of activin …; assay: BIAcore SPR, biotinylated ActRIIBecd on chip; SD ±18.14 nM
Description: as §1

[18] = target: T1, extracellular domain of activin …; assay: BIAcore SPR, biotinylated ActRIIBecd on chip; SD ±19.11 nM
Description: as §1

[19] = target: T1, extracellular domain of activin …; assay: BIAcore SPR, biotinylated ActRIIBecd on chip; SD ±12.34 nM
Description: as §1

B1: Recombinant polypeptide of clones 29 + 16 (designed binder)
chain: EPLGGARWEAFDVTDAVQSHRRSQRASRKCCLVLRAVTASVDFSDVGWNDWAVAPPGYHAFYCHGECPFPLADHLNSDNHAIVQTLVNSV
- Kd [1]: 54.3 nM

B2: Clone No. 25 domain (ActRIIBecd-associated polypeptide) (peptide)
chain: TYPASPKPMRHKMRSCACCAGGLRNRTGTV
- Kd [2]: 41.1 nM

B3: Clone No. 26 domain (ActRIIBecd-associated polypeptide) (peptide)
chain: B2 chain with K12S, R26Q
- Kd [3]: 39.6 nM

B4: Recombinant polypeptide of clones 28 + 12 (designed binder)
chain: EPLGGARWEAFDVTDAVQSHRRSPRASRKCCLGLRAVTASAQAKHKQYKRLKSSCKRHPLY
- Kd [4]: 57.9 nM

B5: Recombinant polypeptide of clones 12 + 28 (designed binder)
chain: AQAKHKQYKRLKSSCKRHPLYEPLGGARWEAFDVTDAVQSHRRSPRASRKCCLGLRAVTAS
- Kd [5]: 59.1 nM

B6: Recombinant polypeptide of clones 9 + 11 (designed binder)
chain: AQAKHKGYKRLKSSCKRHPLYAQAKHKGRKRLKSSCKRHPLY
- Kd [6]: 59.1 nM

B7: Recombinant polypeptide of clones 11 + 9 (designed binder)
chain: B6 chain with Y8R, R29Y
- Kd [7]: 58.2 nM

B8: Clone No. 28 domain (ActRIIBecd-associated polypeptide) (peptide)
chain: EPLGGARWEAFDVTDAVQSHRRSPRASRKCCLGLRAVTAS
- Kd [8]: 53.8 nM

B9: Clone No. 29 domain (ActRIIBecd-associated polypeptide) (peptide)
chain: B8 chain with P24Q, G33V
- Kd [9]: 57.9 nM

B10: Clone No. 22 domain (ActRIIBecd-associated polypeptide) (peptide)
chain: NSKIPKACCVPTELSAISPLYLDENEKVVLKNYQDMVVHGCGCR
- Kd [10]: 51.7 nM

B11: Clone No. 23 domain (ActRIIBecd-associated polypeptide) (peptide)
chain: B10 chain with P19M, V28P, H39E
- Kd [11]: 64.4 nM

B12: Clone No. 24 domain (ActRIIBecd-associated polypeptide) (peptide)
chain: B10 chain with I4D, P19M
- Kd [12]: 56.7 nM

B13: Recombinant polypeptide of clones 17 + 18 (designed binder)
chain: VDFSDVGWNDWIVAPPGYHAFYCHGECPFPLADHLNSDNHAIVQTLVNSVVDFSDVGWNDHAVAPPGYHAFYCHGECPFPLADHLNSTNHAIVQTLVNSV
- Kd [13]: 65.8 nM

B14: Recombinant polypeptide of clones 23 + 24 (designed binder)
chain: NSKIPKACCVPTELSAISMLYLDENEKPVLKNYQDMVVEGCGCRNSKDPKACCVPTELSAISMLYLDENEKVVLKNYQDMVVHGCGCR
- Kd [14]: 61.8 nM

B15: Recombinant polypeptide of clones 24 + 23 (designed binder)
chain: B14 chain with I4D, P28V, E39H, D48I, V72P, H83E
- Kd [15]: 62.7 nM

B16: Recombinant polypeptide of clones 26 + 16 (designed binder)
chain: TYPASPKPMRHSMRSCACCAGGLRNQTGTVVDFSDVGWNDWAVAPPGYHAFYCHGECPFPLADHLNSDNHAIVQTLVNSV
- Kd [16]: 61.7 nM

B17: Recombinant polypeptide of clones 16 + 29 (designed binder)
chain: VDFSDVGWNDWAVAPPGYHAFYCHGECPFPLADHLNSDNHAIVQTLVNSVEPLGGARWEAFDVTDAVQSHRRSQRASRKCCLVLRAVTAS
- Kd [17]: 58.7 nM

B18: Recombinant polypeptide of clones 16 + 26 (designed binder)
chain: VDFSDVGWNDWAVAPPGYHAFYCHGECPFPLADHLNSDNHAIVQTLVNSVTYPASPKPMRHSMRSCACCAGGLRNQTGTV
- Kd [18]: 57.8 nM

B19: Recombinant polypeptide of clones 12 + 25 (designed binder)
chain: AQAKHKQYKRLKSSCKRHPLYTYPASPKPMRHKMRSCACCAGGLRNRTGTV
- Kd [19]: 51.2 nM
